Data from patent US20050169917A1.

B1: synthetic OFQ17 with K13C (peptide)
peptide: FGGFTGARKSARCLANQ
B2: synthetic OFQ17 with R8K (peptide)
peptide: FGGFTGAKKSARKLANQ
B3: OFQ11 (peptide)
peptide: FGGFTGARKSA

Target: Orphanin FQ receptor, normal (NT), expressed in Cos-7 cells (UniProt P35370)
Test: inhibition of [125I] Y14-OFQ17 binding, Cos-7 cells transfected with OFQR

Binder | IC50 [nM]
B1 | 0.1
B2 | 0.1
B3 | 5000
